In patent US20260098059A1 (ENDOMET BIOSCIENCES, published 2026):
“And” between values parts separate entries of the source, which are not always exact repeats. Equal values may be shown once. Where no end group is shown, it is not given here.

T1: β-catenin (UniProt P35222 134-665, limits assumed, biotinylated in the SPR and plate assays)
T1 sequence (looked up): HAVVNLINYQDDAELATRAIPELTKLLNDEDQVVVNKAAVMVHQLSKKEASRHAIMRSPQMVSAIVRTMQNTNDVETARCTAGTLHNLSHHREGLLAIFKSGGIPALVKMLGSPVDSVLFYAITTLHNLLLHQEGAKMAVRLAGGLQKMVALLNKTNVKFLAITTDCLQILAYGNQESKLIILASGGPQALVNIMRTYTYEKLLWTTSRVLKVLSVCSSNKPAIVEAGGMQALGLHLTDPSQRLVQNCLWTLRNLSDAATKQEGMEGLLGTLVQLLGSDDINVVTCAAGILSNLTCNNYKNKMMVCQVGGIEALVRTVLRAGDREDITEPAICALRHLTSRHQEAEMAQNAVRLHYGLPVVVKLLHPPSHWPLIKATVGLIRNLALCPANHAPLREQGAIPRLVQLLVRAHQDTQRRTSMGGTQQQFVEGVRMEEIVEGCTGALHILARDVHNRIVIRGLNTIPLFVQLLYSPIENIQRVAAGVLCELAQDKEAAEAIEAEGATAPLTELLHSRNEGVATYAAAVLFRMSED


Molecular target: T1, β-catenin
Experiment: cell-based or functional assay

Binder | Wnt Reporter EC50
MSRMWFLISFW-NH2 [SEQ ID NO: 72] | > 30 µM
MSRKWFLISFW-NH2 [SEQ ID NO: 87] | > 30 µM
WSRWWFLISFW-NH2 [SEQ ID NO: 92] | > 15 µM and ≤ 22.5 µM
WSRMWFLISFW-NH2 [SEQ ID NO: 79] | > 30 µM
MSRFWFLISFW-NH2 [SEQ ID NO: 77] | > 30 µM
MSRRWFLISFW-NH2 [SEQ ID NO: 75] | > 30 µM
MTRMWFLISFW-NH2 [SEQ ID NO: 73] | > 30 µM
MSRTWFLISFW-NH2 [SEQ ID NO: 76] | > 30 µM
MQRMWFLISFW-NH2 [SEQ ID NO: 74] | > 30 µM
RSRMWFLISFW-NH2 [SEQ ID NO: 84] | > 30 µM
MSRHWFLISFW-NH2 [SEQ ID NO: 88] | > 30 µM
KSRMWYLISFW (HELM PEPTIDE1{K.S.R.M.W.Y.L.I.S.F.W}$PEPTIDE1,PEPTIDE1,1:R3-11:R2$$$V2.0; SMILES CC[C@H](C)[C@@H]1NC(=O)[C@H](CC(C)C)NC(=O)[C@H](Cc2ccc(O)cc2)NC(=O)[C@H](Cc2c[nH]c3ccccc23)NC(=O)[C@H](CCSC)NC(=O)[C@H](CCCNC(=N)N)NC(=O)[C@H](CO)NC(=O)[C@@H](N)CCCCNC(=O)[C@H](Cc2c[nH]c3ccccc23)NC(=O)[C@H](Cc2ccccc2)NC(=O)[C@H](CO)NC1=O) [SEQ ID NO: 32] | > 30 µM
HSRMWFLISFW-NH2 [SEQ ID NO: 89] | > 30 µM
WSRKWFLISFW-NH2 [SEQ ID NO: 90] | > 30 µM
MSRMWWLISFW-NH2 [SEQ ID NO: 80] | > 30 µM
MSRWWFLISFW-NH2 [SEQ ID NO: 78] | > 30 µM
KSRKWFLISFW-NH2 [SEQ ID NO: 93] | > 30 µM
YSRMWFLISFW-NH2 [SEQ ID NO: 82] | > 30 µM
DSRMWFLISFW-NH2 [SEQ ID NO: 85] | > 30 µM
WSRHWFLISFW-NH2 [SEQ ID NO: 91] | > 30 µM
ESRMWFLISFW-NH2 [SEQ ID NO: 86] | > 30 µM
FSRMWFLISFW-NH2 [SEQ ID NO: 81] | > 30 µM
KSRMWFLISFW-NH2 [SEQ ID NO: 83] | > 30 µM
